Values joined by “and” are separate entries in the source; they are usually repeats but may differ in a detail not shown here. Equal values may be shown once. Bridge positions count the residues as written; N and C are the ends. Square brackets hold non-standard residues; d marks the D form. Ends that are not written are not given here. 1Nal = N[C@@H](Cc1cccc2ccccc12)C(=O)O; 2Nal = N[C@@H](Cc1ccc2ccccc2c1)C(=O)O; d2Nal = N[C@H](Cc1ccc2ccccc2c1)C(=O)O; Bta = N[C@@H](Cc1csc2ccccc12)C(=O)O; hCha = N[C@@H](CCC1CCCCC1)C(=O)O; dChg = N[C@@H](C(=O)O)C1CCCCC1; dTle = CC(C)(C)[C@@H](N)C(=O)O; Nle = CCCC[C@H](N)C(=O)O; Ac5c = NC1(C(=O)O)CCCC1; Apc = not defined here; Ava = NCCCCC(=O)O; GABA = NCCCC(=O)O; βAla = NCCC(=O)O
Assays:
[1] = target: T1, human melanocortin receptor subtype 4 (hMC4-R) (human, UniProt P32245 1-332); experiment: [125I]-NDP-α-MSH competition, membranes
T1 construct: whole, on cells; membranes of CHO-K1 cells
Experimental: (§1) Cellular membranes used for the in vitro receptor binding assays were obtained from transgenic CHO-K1 cells stably expressing hMC-R receptor subtypes 1, 3, 4 or 5. […] The pellets were resuspended in the same buffer and centrifuged at 50,000 g for 10 minutes at approximately 4° C. The washed pellets containing the cellular membranes were stored at approximately −80° C.
(§2) Competitive inhibition of [¹²⁵I](Tyr²)-(Nle⁴-D-Phe⁷)α-MSH ([¹²⁵I]-NDP-α-MSH, Amersham Biosciences®) binding was carried out in polypropylene 96 well plates. Cell membranes (1-10 μg protein/well) prepared as described above were incubated in 50 mM Tris-HCl at pH 7.4 containing 0.2% bovine serum albumin (BSA), 5 mM MgCl₂, 1 mM CaCl₂ and 0.1 mg/mL bacitracin, with increasing concentrations of the test compound and 0.1-0.3 nM […] for approximately 90-120 minutes at approximately 37° C. Bound [¹²⁵I]-NDP-α-MSH ligand was separated from free [¹²⁵I]-NDP-α-MSH by filtration through GF/C glass fiber filter plates (Unifilter®; Packard) presoaked with 0.1% (w/v) polyethylenimine (PEI), using a Packard Filtermate® harvester. Filters were washed three times with 50 mM Tris-HCl at pH 7.4 at a temperature of approximately 0-4° C. and then assayed for radioactivity using a Packard Topcount® scintillation counter. Binding data were analyzed by computer-assisted non-linear regression analysis (XL fit; IDBS).

[2] = target: T2, human melanocortin receptor subtype 1 (hMC1-R) (human, UniProt Q01726 1-317); experiment: [125I]-NDP-α-MSH competition, membranes
T2 construct: whole, on cells; membranes of CHO-K1 cells
Experimental: as §1, §2

[3] = target: T3, human melanocortin receptor subtype 3 (hMC3-R) (human, UniProt P41968 1-323); experiment: [125I]-NDP-α-MSH competition, membranes
T3 construct: whole, on cells; membranes of CHO-K1 cells
Experimental: as §1, §2

[4] = target: T4, human melanocortin receptor subtype 5 (hMC5-R) (human, UniProt P33032 1-325); experiment: [125I]-NDP-α-MSH competition, membranes
T4 construct: whole, on cells; membranes of CHO-K1 cells
Experimental: as §1, §2

hMC3-R = target: T5, hMC3-R (human, UniProt P41968 1-323); experiment: competition with [125I]-NDP-α-MSH, CHO-K1 membranes
T5 construct: whole, on cells; Assayed as membranes of CHO-K1 cells expressing the receptor; also called hMC-R receptor subtype 3; melacortin-3 (MC3-R)
Experimental: as §1, §2

hMC4-R = target: T6, hMC4-R (human, UniProt P32245 1-332); experiment: as above
T6 construct: whole, on cells; Assayed as membranes of CHO-K1 cells expressing the receptor; also called hMC-R receptor subtype 4; melanocortin-4 (MC4-R)
Experimental: as §1, §2

hMC1-R = target: T7, hMC1-R (human, UniProt Q01726 1-317); experiment: as above
T7 construct: whole, on cells; Assayed as membranes of CHO-K1 cells expressing the receptor; also called hMC-R receptor subtype 1; melanocyte-specific receptor (MC1-R)
Experimental: as §1, §2

hMC5-R = target: T8, hMC5-R (human, UniProt P33032 1-325); experiment: as above
T8 construct: whole, on cells; Assayed as membranes of CHO-K1 cells expressing the receptor; also called hMC-R receptor subtype 5; melanocortin-5 receptor (MC5-R)
Experimental: as §1, §2

T5 sequence (P41968 whole entry): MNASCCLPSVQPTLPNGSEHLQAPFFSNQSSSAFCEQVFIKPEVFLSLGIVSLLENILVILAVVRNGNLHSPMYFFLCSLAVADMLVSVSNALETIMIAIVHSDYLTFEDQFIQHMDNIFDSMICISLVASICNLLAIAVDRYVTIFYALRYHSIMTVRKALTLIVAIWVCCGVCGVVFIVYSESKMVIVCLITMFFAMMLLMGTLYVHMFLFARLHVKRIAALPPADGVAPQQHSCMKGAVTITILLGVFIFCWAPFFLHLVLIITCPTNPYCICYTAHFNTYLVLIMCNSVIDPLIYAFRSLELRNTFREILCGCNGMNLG
T3 sequence (P41968 whole entry): as above
T8 sequence (P33032 whole entry): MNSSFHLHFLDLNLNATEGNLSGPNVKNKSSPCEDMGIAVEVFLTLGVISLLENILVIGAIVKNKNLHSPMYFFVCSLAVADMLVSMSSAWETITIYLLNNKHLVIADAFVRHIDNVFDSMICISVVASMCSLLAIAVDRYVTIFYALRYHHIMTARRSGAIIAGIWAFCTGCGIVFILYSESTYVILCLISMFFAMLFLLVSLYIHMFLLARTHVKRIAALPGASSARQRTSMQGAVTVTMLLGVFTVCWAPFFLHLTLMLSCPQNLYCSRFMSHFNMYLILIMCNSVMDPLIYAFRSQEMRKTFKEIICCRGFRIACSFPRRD
T4 sequence (P33032 whole entry): as above
T2 sequence (Q01726 whole entry): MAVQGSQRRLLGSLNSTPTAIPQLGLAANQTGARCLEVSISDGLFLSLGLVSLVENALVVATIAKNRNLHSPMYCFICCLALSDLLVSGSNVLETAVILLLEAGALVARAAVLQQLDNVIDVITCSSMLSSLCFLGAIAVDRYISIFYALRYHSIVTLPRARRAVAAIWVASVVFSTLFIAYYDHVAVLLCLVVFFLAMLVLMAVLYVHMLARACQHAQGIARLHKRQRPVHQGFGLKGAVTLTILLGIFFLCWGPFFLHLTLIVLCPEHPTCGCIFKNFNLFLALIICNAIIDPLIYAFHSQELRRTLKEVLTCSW
T7 sequence (Q01726 whole entry): as above
T6 sequence (P32245 whole entry): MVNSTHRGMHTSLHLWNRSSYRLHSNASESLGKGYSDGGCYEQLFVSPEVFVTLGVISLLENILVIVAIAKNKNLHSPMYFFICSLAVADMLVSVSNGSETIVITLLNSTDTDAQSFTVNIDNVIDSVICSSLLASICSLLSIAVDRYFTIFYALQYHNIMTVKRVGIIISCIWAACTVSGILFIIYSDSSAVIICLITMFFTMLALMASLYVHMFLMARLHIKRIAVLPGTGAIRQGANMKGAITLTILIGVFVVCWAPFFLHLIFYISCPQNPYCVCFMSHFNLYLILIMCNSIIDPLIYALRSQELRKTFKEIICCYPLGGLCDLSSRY
T1 sequence (P32245 whole entry): as above

Binder | Ki [1] | Ki [2] | Ki [3] | Ki [4] | Ki (hMC3-R) | Ki (hMC4-R) | Ki (hMC1-R) | Ki (hMC5-R)
D[Ac5c][d2Nal]RWK-NH2 (lactam 1-6; also: hydantoin ring: N-terminal N of Asp1 and backbone N of residue 2 bridged by one C(O), bridge at N via C(O), other end not in the chain) [c[Hydantoin(C(O)-(Asp-A5c))-D-2-Nal-Arg-Trp-Lys]-NH2] | 44.6 nM | 9940 nM | 2390 nM |  |  |  |  | 
Ac-CEH[d2Nal]RWACPPKD-NH2 (disulfide 1-8; SMILES CC(=O)N[C@H]1CSSC[C@@H](C(=O)N2CCC[C@H]2C(=O)N2CCC[C@H]2C(=O)N[C@@H](CCCCN)C(=O)N[C@@H](CC(=O)O)C(N)=O)NC(=O)[C@H](C)NC(=O)[C@H](Cc2c[nH]c3ccccc23)NC(=O)[C@H](CCCNC(=N)N)NC(=O)[C@@H](Cc2ccc3ccccc3c2)NC(=O)[C@H](Cc2c[nH]cn2)NC(=O)[C@H](CCC(=O)O)NC1=O) [Ac-c(Cys-Glu-His-D-2-Nal-Arg-Trp-Ala-Cys)-Pro-Pro-Lys-Asp-NH2] | 0.569 nM | 49.9 nM | 9 nM | 218 nM |  |  |  | 
Ac-CEH[d2Nal]R[2Nal]ACPPKD[βAla]RRRRRRQRRR-NH2 (disulfide 1-8) | 0.261 nM | 3.65 nM | 2.26 nM |  |  |  |  | 
Ac-[Nle]C[dA]H[dF]RW[Ava]C-NH2 (disulfide 2-9; SMILES CCCC[C@H](NC(C)=O)C(=O)N[C@H]1CSSC[C@@H](C(N)=O)NC(=O)CCCCNC(=O)[C@H](Cc2c[nH]c3ccccc23)NC(=O)[C@H](CCCNC(=N)N)NC(=O)[C@@H](Cc2ccccc2)NC(=O)[C@H](Cc2c[nH]cn2)NC(=O)[C@@H](C)NC1=O) [Ac-Nle-c(Cys-D-Ala-His-D-Phe-Arg-Trp-Apn-Cys)-NH2] |  |  |  |  | 228 nM | 7.58 nM | 1.1 nM | 859 nM
Ac-[dChg]DH[dF]RW[GABA]K-NH2 (lactam 2-8) [Ac-D-Chg-c(Asp-His-D-Phe-Arg-Trp-Gaba-Lys)-NH2] |  |  |  |  | 14.5 nM | 2.99 nM | 0.227 nM | 164 nM
Ac-[Nle]C[dTle]H[dF]RWC-NH2 (disulfide 2-8) [Ac-Nle-c(Cys-D-Tle-His-D-Phe-Arg-Trp-Cys)-NH2] |  |  |  |  | 85.8 nM | 11.2 nM | 12 nM | 40 nM
Ac-[Nle]C[dA]H[dF]RW[βAla]C-NH2 (disulfide 2-9) [Ac-Nle-c(Cys-D-Ala-His-D-Phe-Arg-Trp-β-Ala-Cys)-NH2] |  |  |  |  | 287 nM and 227 nM | 5.55 nM | 0.995 nM and 1 nM | 766 nM and 496 nM
Ac-RDH[dF]RWAK-NH2 (lactam 2-8) [Ac-Arg-c(Asp-His-D-Phe-Arg-Trp-Ala-Lys)-NH2] |  |  |  |  | 20.7 nM | 1.01 nM | 0.68 nM | 783 nM
XCAHFRWCXYGRKKRRQRRR (N-terminal Ac; Nle at 1; D-Ala at 3; D-Phe at 5; Doc at 9; disulfide Cys2-Cys8; C-terminal NH2) [Ac-Nle-c(Cys-D-Ala-His-D-Phe-Arg-Trp-Cys)-Doc-Tyr-Gly-Arg-Lys-Lys-Arg-Arg-Gln-Arg-Arg-Arg-NH2] | 0.596 nM |  | 0.699 nM |  |  |  |  | 
CEHXRXACPPKDXYGRKKRRQRRR (N-terminal Ac; D-2-Nal at 4; 2-Nal at 6; β-Ala at 13; disulfide Cys1-Cys8; C-terminal NH2) | 0.17 nM | 1.74 nM | 0.59 nM | 4.38 nM |  |  |  | 
Ac-CEH[d2Nal]R[1Nal]ACPPKD[βAla]YGRKRRRQRRR-NH2 (disulfide 1-8) | 0.301 nM | 1.5 nM | 1.61 nM |  |  |  |  | 
Ac-CEH[d2Nal]R[Bta]ACPPKD[βAla]YGRKRRRQRRR-NH2 (disulfide 1-8) [Ac-c(Cys-Glu-His-D-2-Nal-Arg-Bal-Ala-Cys)-Pro-Pro-Lys-Asp-β-[…]NH2] | 0.624 nM | 2.14 nM | 1.12 nM |  |  |  |  | 
Ac-CEH[d2Nal]R[1Nal]ACPPKD[βAla]YGRRKRRQRRR-NH2 (disulfide 1-8; SMILES CC(=O)N[C@H]1CSSC[C@@H](C(=O)N2CCC[C@H]2C(=O)N2CCC[C@H]2C(=O)N[C@@H](CCCCN)C(=O)N[C@@H](CC(=O)O)C(=O)NCCC(=O)N[C@@H](Cc2ccc(O)cc2)C(=O)NCC(=O)N[C@@H](CCCNC(=N)N)C(=O)N[C@@H](CCCNC(=N)N)C(=O)N[C@@H](CCCCN)C(=O)N[C@@H](CCCNC(=N)N)C(=O)N[C@@H](CCCNC(=N)N)C(=O)N[C@@H](CCC(N)=O)C(=O)N[C@@H](CCCNC(=N)N)C(=O)N[C@@H](CCCNC(=N)N)C(=O)N[C@@H](CCCNC(=N)N)C(N)=O)NC(=O)[C@H](C)NC(=O)[C@H](Cc2cccc3ccccc23)NC(=O)[C@H](CCCNC(=N)N)NC(=O)[C@@H](Cc2ccc3ccccc3c2)NC(=O)[C@H](Cc2c[nH]cn2)NC(=O)[C@H](CCC(=O)O)NC1=O) | 0.15 nM | 1.75 nM | 1.74 nM | 16.8 nM |  |  |  | 
Ac-CEH[d2Nal]R[2Nal]ACPPKD[βAla]YGRRKRRQRRR-NH2 (disulfide 1-8) | 0.223 nM |  | 1.12 nM | 15.3 nM |  |  |  | 
Ac-[hCha]DH[dF]RW[GABA]K-NH2 (lactam 2-8; SMILES CC(=O)N[C@@H](CCC1CCCCC1)C(=O)N[C@H]1CC(=O)NCCCC[C@@H](C(N)=O)NC(=O)CCCNC(=O)[C@H](Cc2c[nH]c3ccccc23)NC(=O)[C@H](CCCNC(=N)N)NC(=O)[C@@H](Cc2ccccc2)NC(=O)[C@H](Cc2c[nH]cn2)NC1=O) [Ac-hCha-c(Asp-His-D-Phe-Arg-Trp-Gaba-Lys)-NH2] |  |  |  |  | 93.5 nM | 56 nM | 0.721 nM | 747 nM
Ac-[Nle]C[dA]H[dF]RW[GABA]C-NH2 (disulfide 2-9) [Ac-Nle-c(Cys-D-Ala-His-D-Phe-Arg-Trp-Gaba-Cys)-NH2] |  |  |  |  | 184 nM and 169 nM | 3.76 nM and 3.12 nM | 0.848 nM and 0.536 nM | 956 nM and 358 nM
D[Apc][d2Nal]RWK-NH2 (lactam 1-6; reading uncertain; also: hydantoin ring: N-terminal N of Asp1 and backbone N of residue 2 bridged by one C(O), bridge at N via C(O), other end not in the chain, printed as c[Hydantoin(C(O)-(Asp-Apc))-D-2-Nal-Arg-Trp-Lys]-NH2) [c[Hydantoin(C(O)-(Asp-Apc))-D-2-Nal-Arg-Trp-Lys]-NH2] | 266 nM | 1280 nM | 2760 nM |  |  |  |  | 
Ac-[Nle]DH[dF]RW[βAla]K-NH2 (lactam 2-8; SMILES CCCC[C@H](NC(C)=O)C(=O)N[C@H]1CC(=O)NCCCC[C@@H](C(N)=O)NC(=O)CCNC(=O)[C@H](Cc2c[nH]c3ccccc23)NC(=O)[C@H](CCCNC(=N)N)NC(=O)[C@@H](Cc2ccccc2)NC(=O)[C@H](Cc2c[nH]cn2)NC1=O) [Ac-Nle-c(Asp-His-D-Phe-Arg-Trp-β-Ala-Lys)-NH2] |  |  |  |  | 9320 nM | 0.617 nM | 0.0996 nM | 10.9 nM
Ac-CEH[d2Nal]R[1Nal]ACPPKD[βAla]RKRRRQRRR-NH2 (disulfide 1-8) |  | 2.12 nM | 3.99 nM | 27.5 nM |  |  |  | 

— patent US20120135923A1 (IPSEN PHARMA S A S, published 2012)
